Data on 1 substance can be found in ChEMBL document CHEMBL2074463, “Characterization of the hepatic canalicular membrane transport of a model oligopeptide: ditekiren” (J Pharmacol Exp Ther, 1997).

The data set relates to CC[C@H](C)[C@H](NC(=O)[C@@H](C[C@H](O)[C@H](CC(C)C)NC(=O)[C@H](Cc1c[nH]cn1)N(C)C(=O)[C@H](Cc1ccccc1)NC(=O)[C@@H]1CCCN1C(=O)OC(C)(C)C)C(C)C)C(=O)NCc1ccccn1. In words: TP_TRANSPORTER: uptake, inhibited by Cyclosporine, Nicardipine, Daunomycin, Verapamil, Reserpine, Rhodamine 123 and Vinblastine in bile canalicular membrane vesicles. The class given is functional, cell membranes. The settings on record: Rattus norvegicus; Bile canalicular membrane vesicle.

With “Multidrug resistance protein 1a (Rattus norvegicus), Q6PSM0”, the Km (usually the substrate concentration at which the rate is half of its maximum) is 19.1 µM.
